# According to patent US20060063231, “Compositions and methods for protein production” (Sangamo BioSciences, Inc., published 2006):
# Biological target: 2392/10 ZFP-VP16 fusion (Artificial Sequence)
# Test: cell_activity; Epo secretion, 2392/10-7 CHO cells; additional three-fold over CMV promoter
# Text: Three different erythropoietin (Epo)-expressing constructs were constructed. In the first, Epo expression was controlled by a CMV promoter fused to a β-globin intron (CMV). In the second, Epo expression was controlled by a CMV promoter containing ten upstream copies of the 2392/10 binding site, fused to a β-globin intron (CMVz10, Example 6). In the third, Epo expression was controlled by a SRα promoter with six additional copies of the 2392/10 binding site immediately upstream of the promoter (SRαZ6, Example 5). The three constructs were transiently transfected into either parental DG44 CHO cells or the ZFP-expressing 2392/10-7 cell line. After 24 hours, Epo secretion was measured by ELISA.
binder,measurement,value
CMVz10 promoter target-site insert (dsDNA) DNA 1: ACGCGTTCATTCCACAGCTCTCATTCCACAGCTCTCATTCCACAGCTCTCATTCCACAGCTCTCATTCCACAGCTCTCATTCCACAGCTCTCATTCCACAGCTCTCATTCCACAGCTCTCATTCCACAGCTCTCATTCCACAGTCACGCGT DNA 2: ACGCGTGACTGTGGAATGAGAGCTGTGGAATGAGAGCTGTGGAATGAGAGCTGTGGAATGAGAGCTGTGGAATGAGAGCTGTGGAATGAGAGCTGTGGAATGAGAGCTGTGGAATGAGAGCTGTGGAATGAGAGCTGTGGAATGAACGCGT,activity,3 fold activation
